Measured values published in the supplement of paper PMC11246515.
± gives the standard deviation of the averaged measurements.

Test: total protein half-life in vivo (active degradation + dilution); higher = more stable protein
[1] = E. coli NCM3722 delta-clpP delta-lon delta-hslV, growth: N-lim chemostat, doubling time 6 h
[2] = E. coli NCM3722 delta-clpP, growth: N-lim chemostat, doubling time 6 h
[3] = E. coli NCM3722 delta-hslV, growth: N-lim chemostat, doubling time 6 h
[4] = E. coli NCM3722 delta-lon, growth: N-lim chemostat, doubling time 6 h
[5] = E. coli NCM3722 delta-smpB, growth: N-lim chemostat, doubling time 6 h
[6] = wild type E. coli NCM3722, growth: C-lim chemostat, doubling time 3 h
[7] = wild type E. coli NCM3722, growth: C-lim chemostat, doubling time 6 h
[8] = wild type E. coli NCM3722, growth: C-lim chemostat, doubling time 12 h
[9] = wild type E. coli NCM3722, growth: N-lim chemostat, doubling time 6 h
[10] = wild type E. coli NCM3722, growth: N-lim chemostat, doubling time 12 h
[11] = wild type E. coli NCM3722, growth: P-lim chemostat, doubling time 6 h
[12] = wild type E. coli NCM3722, growth: P-lim chemostat, doubling time 12 h

Row | Sequence | total protein half-life in vivo [1] [h] | total protein half-life in vivo [2] [h] | total protein half-life in vivo [3] [h] | total protein half-life in vivo [4] [h] | total protein half-life in vivo [5] [h] | total protein half-life in vivo [6] [h] | total protein half-life in vivo [7] [h] | total protein half-life in vivo [8] [h] | total protein half-life in vivo [9] [h] | total protein half-life in vivo [10] [h] | total protein half-life in vivo [11] [h] | total protein half-life in vivo [12] [h]
1 | MEFSVKSGSPEKQRSACIVVGVFEPRRLSPIAEQLDKISDGYISALLRRGELEGKPGQTLLLHHVPNVLSERILLIGCGKERELDERQYKQVIQKTINTLNDTGSMEAVCFLTELHVKGRNNYWKVRQAVETAKETLYSFDQLKTNKSEPRRPLRKMVFNVPTRRELTSGERAIQHGLAIAAGIKAAKDLGNMPPNICNAAYLASQARQLADSYSKNVITRVIGEQQMKELGMHSYLAVGQGSQNESLMSVIEYKGNASEDARPIVLVGKGLTFDSGGISIKPSEGMDEMKYDMCGAAAVYGVMRMVAELQLPINVIGVLAGCENMPGGRAYRPGDVLTTMSGQTVEVLNTDAEGRLVLCDVLTYVERFEPEAVIDVATLTGACVIALGHHITGLMANHNPLAHELIAASEQSGDRAWRLPLGDEYQEQLESNFADMANIGGRPGGAITAGCFLSRFTRKYNWAHLDIAGTAWRSGKAKGATGRPVALLAQFLLNRAGFNGEE | 6.37 ± 0.15 | 6.34 ± 0.31 | 6.11 ± 0.078 | 7.01 ± 0.64 | 5.81 ± 0.16 | 3.38 ± 0.097 | 6.45 ± 0.3 | 11.7 ± 1 | 6.215 ± 0.053 | 12.7 ± 1.1 | 6.33 ± 0.09 | 12.7 ± 0.79
2 | MEGWQRAFVLHSRPWSETSLMLDVFTEESGRVRLVAKGARSKRSTLKGALQPFTPLLLRFGGRGEVKTLRSAEAVSLALPLSGITLYSGLYINELLSRVLEYETRFSELFFDYLHCIQSLAGVTGTPEPALRRFELALLGHLGYGVNFTHCAGSGEPVDDTMTYRYREEKGFIASVVIDNKTFTGRQLKALNAREFPDADTLRAAKRFTRMALKPYLGGKPLKSRELFRQFMPKRTVKTHYE [P0A7H3] |  | 2.812 ± 0.027 |  | > 8 |  | 1.98 |  | 2.57 |  | 2.87 |  | 4.34
3 | MEIFFTILIMTLVVSLSGVVTRVMPFQIPLPLMQIAIGALLAWPTFGLHVEFDPELFLVLFIPPLLFADGWKTPTREFLEHGREIFGLALALVVVTVVGIGFLIYWVVPGIPLIPAFALAAVLSPTDAVALSGIVGEGRIPKKIMGILQGEALMNDASGLVSLKFAVAVAMGTMIFTVGGATVEFMKVAIGGILAGFVVSWLYGRSLRFLSRWGGDEPATQIVLLFLLPFASYLIAEHIGVSGILAAVAAGMTITRSGVMRRAPLAMRLRANSTWAMLEFVFNGMVFLLLGLQLPGILETSLMAAEIDPNVEIWMLFTNIILIYAALMLVRFGWLWTMKKFSNRFLKKKPMEFGSWTTREILIASFAGVRGAITLAGVLSIPLLLPDGNVFPARYELVFLAAGVILFSLFVGVVMLPILLQHIEVADHSQQLKEERIARAATAEVAIVAIQKMEERLAADTEENIDNQLLTEVSSRVIGNLRRRADGRNDVESSVQEENLERRFRLAALRSERAELYHLRATREISNETLQKLLHDLDLLEALLIEENQ | 6.08 ± 0.45 |  | 6.29 ± 0.48 | 5.55 ± 0.11 | 5.17 ± 1.3 |  | 5.6 ± 0.69 | 11.9 ± 0.93 | 5.74 ± 0.28 | 10.9 ± 0.26 | 6.31 ± 0.26 | 11.4 ± 0.66
4 | MEIREGHNKFYINDKQGKQIAEIVFVPTGENLAIIEHTDVDESLKGQGIGKQLVAKVVEKMRREKRKIIPLCPFAKHEFDKTREYDDIRS |  |  |  |  |  |  |  |  |  | > 16 |  | 12
5 | MEITEPRRLYQQLAADLKERIEQGVYLVGDKLPAERFIADEKNVSRTVVREAIIMLEVEGYVEVRKGSGIHVVSNQPRHQQAADNNMEFANYGPFELLQARQLIESNIAEFAATQVTKQDIMKLMAIQEQARGEQCFRDSEWDLQFHIQVALATQNSALAAIVEKMWTQRSHNPYWKKLHEHIDSRTVDNWCDDHDQILKALIRKDPHAAKLAMWQHLENTKIMLFNETSDDFEFNADRYLFAENPVVHLDTATSGSK [P0ACL2] | 5.59 ± 0.086 | 4.22 ± 0.52 | 1.94 ± 0.086 | 2.4 ± 0.26 | 2.12 ± 0.16 | 1.97 ± 0.099 | 3.7 ± 0.26 | 5.16 ± 0.083 | 1.97 ± 0.043 | 2.59 ± 0.37 | 2.99 ± 0.29 | 4.91 ± 0.27
6 | MEKKLPRIKALLTPGEVAKRSGVAVSALHFYESKGLITSIRNSGNQRRYKRDVLRYVAIIKIAQRIGIPLATIGEAFGVLPEGHTLSAKEWKQLSSQWREELDRRIHTLVALRDELDGCIGCGCLSRSDCPLRNPGDRLGEEGTGARLLEDEQN [P0ACS2] | 4.33 ± 0.31 | 1.34 |  | 2.45 | 1.49 |  | 2.35 | 3.19 ± 0.38 | 1.33 |  |  | 
7 | MEKRTPHTRLSQVKKLVNAGQVRTTRSALLNADELGLDFDGMCNVIIGLSESDFYKSMTTYSDHTIWQDVYRPRLVTGQVYLKITVIHDVLIVSFKEK | 5.29 |  |  |  | 5 | 3.12 |  |  |  |  |  | 13.2 ± 0.69
8 | MEKVMLSFDKVSAHYGKIQALHEVSLHINQGEIVTLIGANGAGKTTLLGTLCGDPRATSGRIVFDDKDITDWQTAKIMREAVAIVPEGRRVFSRMTVEENLAMGGFFAERDQFQERIKWVYELFPRLHERRIQRAGTMSGGEQQMLAIGRALMSNPRLLLLDEPSLGLAPIIIQQIFDTIEQLREQGMTIFLVEQNANQALKLADRGYVLENGHVVLSDTGDALLANEAVRSAYLGG | 5.87 ± 0.53 | 6.13 ± 0.64 | 5.66 ± 0.54 | 6.44 ± 0.9 | 5.58 ± 0.61 | 3.07 ± 0.055 | 5.86 ± 0.22 | 12.4 ± 0.52 | 5.51 ± 0.47 | 10.1 ± 1.1 | 5.94 ± 0.59 | 13.5 ± 0.69
9 | MELHCPQCQHVLDQDNGHARCRSCGEFIEMKALCPDCHQPLQVLKACGAVDYFCQHGHGLISKKRVEFVLA | 5.52 ± 2.3 | 4.63 |  |  |  |  |  | 4.37 | 6.43 | 5.69 |  | > 16
